Publication PMC2673437 (Nucleic Acids Research, 2009)
Where two headings read alike, the source gives them in different places. Where no end group is shown, it is not given here. The star is where a group is joined. Biotin = O=C1N[C@H]2[C@H](CS[C@H]2CCCCC(=O)*)N1

T1: Bacillus stearothermophilus DnaB helicase (B. stearothermophilus, UniProt Q9X4C9 1-454)
T1 sequence (looked up): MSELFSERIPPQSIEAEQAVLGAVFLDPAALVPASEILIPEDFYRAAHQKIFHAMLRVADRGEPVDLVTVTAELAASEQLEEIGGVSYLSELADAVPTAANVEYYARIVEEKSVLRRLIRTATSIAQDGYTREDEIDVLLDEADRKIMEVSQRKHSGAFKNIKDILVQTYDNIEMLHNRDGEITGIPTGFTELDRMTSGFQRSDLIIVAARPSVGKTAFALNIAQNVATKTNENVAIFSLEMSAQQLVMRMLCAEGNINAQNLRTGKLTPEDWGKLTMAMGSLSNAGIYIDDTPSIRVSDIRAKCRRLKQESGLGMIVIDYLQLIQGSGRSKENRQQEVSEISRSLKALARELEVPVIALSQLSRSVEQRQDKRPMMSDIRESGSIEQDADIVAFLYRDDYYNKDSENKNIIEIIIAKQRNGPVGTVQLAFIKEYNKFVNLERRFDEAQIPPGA


What was measured:
[1] = target: T1, Bacillus stearothermophilus DnaB …; test: SPR
[2] = target: T1, Bacillus stearothermophilus DnaB …; test: SPR; remark: listed apart in the source

| Kd [1] | stoichiometry N [1] | Kd [2] | Binder |
| --- | --- | --- | --- |
| 18.5 µM | 1.8 molecules per Bst DnaB subunit |  | DnaI-N106 (N-terminal 106 residues of B. subtilis DnaI) (domain or fragment, UniProt P06567 1-106, looked up) MEPIGRSLQGVTGRPDFQKRLEQMKEKVMKDQDVQAFLKENEEVIDQKMIEKSLNKLYEYIEQSKNCSYCSEDENCNNLLEGYHPKLVVNGRSIDIEYYECPVKRK |
| 7.3 µM | 1.7 molecules per Bst DnaB subunit |  | DnaI-N123 (residues 1-123 of B. subtilis DnaI) (domain or fragment, UniProt P06567 1-123, looked up) MEPIGRSLQGVTGRPDFQKRLEQMKEKVMKDQDVQAFLKENEEVIDQKMIEKSLNKLYEYIEQSKNCSYCSEDENCNNLLEGYHPKLVVNGRSIDIEYYECPVKRKLDQQKKQQSLMKSMYIQ |
| 0.65 µM | 0.8 molecules per Bst DnaB subunit |  | DnaI-N132 (residues 1-132 of B. subtilis DnaI, C-terminal His6) (domain or fragment, UniProt P06567 1-132, looked up) MEPIGRSLQGVTGRPDFQKRLEQMKEKVMKDQDVQAFLKENEEVIDQKMIEKSLNKLYEYIEQSKNCSYCSEDENCNNLLEGYHPKLVVNGRSIDIEYYECPVKRKLDQQKKQQSLMKSMYIQQDLLGATFQ |
|  |  | ≥ 50 µM | Biotin-SGMEPIGRSLQGVTGRPDFQ [N-terminally biotinylated DnaI-N-peptide (DnaI residues 1-18, preceded by biotin-Ser-Gly)] |
| > 140 µM |  |  | MEPIGRSLQGVTGRPDFQ [unmodified peptide corresponding to residues 1-18 of DnaI] |
